Experimental findings from publication PMC3326527 (Journal of molecular biology, 2005) are described below.

This series deals with the molecule itself. As to the kind of experiment: crystal structure.

B1: UDP-galactopyranose mutase from Mycobacterium tuberculosis (enzyme)
chain: MQPMTARFDLFVVGSGFFGLTIAERVATQLDKRVLVLERRPHIGGNAYSEAEPQTGIEVHKYGAHLFHTSNKRVWDYVRQFTDFTDYRHRVFAMHNGQAYQFPMGLGLVSQFFGKYFTPEQARQLIAEQAAEIDTADAQNLEEKAISLIGRPLYEAFVKGYTAKQWQTDPKELPAANITRLPVRYTFDNRYFSDTYEGLPTDGYTAWLQNMAADHRIEVRLNTDWFDVRGQLRPGSPAAPVVYTGPLDRYFDYAEGRLGWRTLDFEVEVLPIGDFQGTAVMNYNDLDVPYTRIHEFRHFHPERDYPTDKTVIMREYSRFAEDDDEPYYPINTEADRALLATYRARAKSETASSKVLFGGRLGTYQYLDMHMAIASALNMYDNVLAPHLRDGVPLLQDGA
B1: the binding result was “binds”.
